Assay results taken from publication PMC4626869, “Subcellular trafficking of guanylyl cyclase/natriuretic peptide receptor-A with concurrent generation of intracellular cGMP” (Bioscience Reports, 2015).
Where no end group is shown, it is not given here.

Target: T1, enhanced GFP-tagged guanylyl cyclase/natriuretic peptide receptor-A (eGFP–NPRA fusion protein) (mouse, UniProt P18293 29-1057)
T1 sequence (looked up): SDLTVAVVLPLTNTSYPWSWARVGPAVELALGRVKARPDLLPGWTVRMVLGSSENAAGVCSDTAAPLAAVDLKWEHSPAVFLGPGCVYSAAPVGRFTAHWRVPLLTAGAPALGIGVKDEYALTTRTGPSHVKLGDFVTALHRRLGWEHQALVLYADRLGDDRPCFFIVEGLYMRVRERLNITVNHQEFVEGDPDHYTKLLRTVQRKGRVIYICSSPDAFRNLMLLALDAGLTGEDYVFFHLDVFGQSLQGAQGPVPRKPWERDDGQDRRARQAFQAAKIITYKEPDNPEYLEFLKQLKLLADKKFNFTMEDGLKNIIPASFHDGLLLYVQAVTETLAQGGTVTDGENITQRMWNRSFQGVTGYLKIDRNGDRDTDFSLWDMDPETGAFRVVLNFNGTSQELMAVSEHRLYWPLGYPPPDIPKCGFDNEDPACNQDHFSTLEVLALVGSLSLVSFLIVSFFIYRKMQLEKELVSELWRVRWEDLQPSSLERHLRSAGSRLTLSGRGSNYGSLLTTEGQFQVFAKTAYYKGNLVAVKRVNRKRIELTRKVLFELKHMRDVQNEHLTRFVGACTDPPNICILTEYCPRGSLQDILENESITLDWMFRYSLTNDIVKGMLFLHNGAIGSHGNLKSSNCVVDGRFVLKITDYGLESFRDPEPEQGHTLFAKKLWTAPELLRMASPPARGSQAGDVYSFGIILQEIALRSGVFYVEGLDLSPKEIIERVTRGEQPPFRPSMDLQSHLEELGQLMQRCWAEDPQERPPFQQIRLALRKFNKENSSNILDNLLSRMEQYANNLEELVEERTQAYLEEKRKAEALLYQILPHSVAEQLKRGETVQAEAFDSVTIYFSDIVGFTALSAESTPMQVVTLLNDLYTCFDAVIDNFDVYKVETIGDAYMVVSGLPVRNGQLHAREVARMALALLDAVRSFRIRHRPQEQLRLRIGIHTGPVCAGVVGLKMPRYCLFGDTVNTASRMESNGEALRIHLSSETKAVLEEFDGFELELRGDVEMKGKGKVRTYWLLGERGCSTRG
Assay: cell-based or functional assay

- cGMP immunofluorescence intensity in intact cells treated with 100 nM ANP (unlabelled) for 1, 5, 10, 15 and 30 min, fold over untreated cells: 27 fold
Binder: SLRRSSCFGGRIDRIGAQSGLGCNSFRY (ligand, rat, UniProt P01161 123-150, looked up, ends and bridges not checked; also: 125I label (residue not given here)) [Atrial natriuretic peptide (ANP), 125I-labelled]
